Reference: publication PMC10232262

Molecular target: TRPA1 tagged with V5 and 6x histidine in the C terminus (UniProt Q8BLA8)
Experiment: pull-down; nickel bead (Ni-NTA) pull-down of TRPA1-V5-His from HEK293 cells; IQGAP1 detected with anti-IQGAP1; cells untreated or treated with AITC (400 uM), AITC with HC-030031 (10 uM), AITC in Ca2+-free solution, or forskolin

Chain of UniProt Q8BLA8 (Q8BLA8 whole entry): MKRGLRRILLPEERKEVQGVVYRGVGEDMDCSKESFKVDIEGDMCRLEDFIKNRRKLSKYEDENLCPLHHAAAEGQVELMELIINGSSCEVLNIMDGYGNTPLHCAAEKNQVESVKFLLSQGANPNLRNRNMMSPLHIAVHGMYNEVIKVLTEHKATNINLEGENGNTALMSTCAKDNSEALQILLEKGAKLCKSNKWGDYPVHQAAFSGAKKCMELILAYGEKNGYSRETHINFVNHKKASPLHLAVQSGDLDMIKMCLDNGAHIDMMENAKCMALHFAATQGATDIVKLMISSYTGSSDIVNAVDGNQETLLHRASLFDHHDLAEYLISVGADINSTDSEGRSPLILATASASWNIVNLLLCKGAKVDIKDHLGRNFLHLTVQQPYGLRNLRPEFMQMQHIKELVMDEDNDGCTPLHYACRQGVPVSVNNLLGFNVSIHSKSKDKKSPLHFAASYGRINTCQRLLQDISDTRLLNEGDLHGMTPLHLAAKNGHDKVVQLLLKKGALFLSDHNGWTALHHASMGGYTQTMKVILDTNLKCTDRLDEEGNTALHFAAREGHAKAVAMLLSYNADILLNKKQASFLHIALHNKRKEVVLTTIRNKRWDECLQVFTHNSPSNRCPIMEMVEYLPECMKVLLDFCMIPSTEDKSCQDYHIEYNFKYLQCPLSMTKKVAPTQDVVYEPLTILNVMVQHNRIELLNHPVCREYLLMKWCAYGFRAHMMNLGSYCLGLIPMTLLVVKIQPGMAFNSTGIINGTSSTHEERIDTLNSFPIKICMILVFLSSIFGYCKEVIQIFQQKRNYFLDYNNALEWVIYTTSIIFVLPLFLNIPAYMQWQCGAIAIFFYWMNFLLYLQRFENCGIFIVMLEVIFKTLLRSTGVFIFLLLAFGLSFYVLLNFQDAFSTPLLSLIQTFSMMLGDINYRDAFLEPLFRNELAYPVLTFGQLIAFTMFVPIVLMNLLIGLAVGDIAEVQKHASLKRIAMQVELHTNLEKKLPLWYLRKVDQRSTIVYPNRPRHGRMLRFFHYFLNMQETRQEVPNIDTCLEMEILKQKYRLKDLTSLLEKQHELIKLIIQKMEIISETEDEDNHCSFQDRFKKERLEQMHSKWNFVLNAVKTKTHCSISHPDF

Substance | relative band density (basal, against wild-type IQGAP1 basal = 1.0) (relative to the first band)
Cdc42 binding region (M1054-K1077) deleted IQGAP1 (from UniProt P46940 1-1657) (natural protein) | 0.53
IQ motif (L700-Q905) deleted IQGAP1 (from UniProt P46940 1-1657) (natural protein) | 1.61
